Target: PDGF-AB (Homo sapiens) (UniProt P04085+P01127)
Assay: filter

Chain of PDGF-AB (Homo sapiens) (P01127 82-190, chain 2 of 2, other chains not shown): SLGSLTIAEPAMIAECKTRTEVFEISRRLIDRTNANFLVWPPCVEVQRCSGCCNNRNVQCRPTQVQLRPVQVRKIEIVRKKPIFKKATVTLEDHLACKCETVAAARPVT

Row | Sequence | binding signal (fold weaker than round 12 pool) (initial random library) | Kd (round 12 enriched pool, data not shown) [nM]
1 | ATCCGCCTGATTAGCGATACTNNNNNNNNNNNNNNNNNNNNNNNNNNNNNNNNNNNNNNNNACTTGAGCAAAATCACCTGCAGGGG [random ssDNA library] | 700 | 
2 | ATCCGCCTGATTAGCGATACTNNNNNNNNNNNNNNNNNNNNNNNNNNNNNNNNNNNNNNNNACTTGAGCAAAATCACCTGCAGGGG [ssDNA SELEX round 12 pool] |  | 0.05
